The domain aggregation screens of Martell et al. (2025)

Assay: soluble fraction after stress (log2 fold change); higher = more stays soluble; pooled small domains, quantitative proteomics
Conditions: stress: pH 4
Procedure, shortened: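 Pooled custom libraries of small protein domains were subjected to pH 4 and measured by high-throughput quantitative proteomics. The log2 fold change in soluble amount per domain is reported, higher values meaning more remained soluble. This is used as a measure of aggregation propensity.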

Compared with “HMNDYIGVDRAKEIALNHARMNESDVQFAKAKLENDDGVVEYEIEFYFGRTEYDYTIDAVSGNIIEYDVEY”, “HMPQKSDLTMEEYNKLGLAGGSGSRKLREQVGIRLSVGYGNSKQFYNRLHTFGISLDELKTAVEEVKNG” is higher in “soluble fraction (log2)” value: -0.0067 for the first, 0.295 for the second.

“HMRDYDFGNLLYKLRIESGYTQKDIADMLGVTDKAVSKWENGIAKPTTNNIKLLSTIYNVSVEELLNG” and “HMLRIIDYNRVVKDLNGLTPEQLLEKLAESFTVEDKGTEEYRPTELHNFSMYLGGHWYSLTAKPGTYDDND” are within 0.2 log units of each other in “soluble fraction (log2)” value: -0.754 for the first, -0.926 for the second.

“HMTNVVSKNKAKEIAMNIINDTVLQGQTAATFKEIVKANGVYVVKIEIQGQEYTSYITKDGKIVFPYGVEV” and “HMAKIATTVYEQIRTAILNGELSNSERLVEEDLAVSMGISRTPVREALRRLAAEGLVDVSPNRGARVAE” are within 0.2 log units of each other in “soluble fraction (log2)” value: -0.661 for the first, -0.778 for the second.

Going from “HMNMSVVEKVIQQISNPGRDSLIPILQAVQEEEGFISRESVIEIGKALDLPASKIYGVATFYNQFR” to “HMIISMKKTATKEQIAHVRELIEGMGYKAHMSVGAERVIFGAIGDERGKERLVSLEAQPGVEKVIPIL”, the “soluble fraction (log2)” value rises from -0.543 to at least 0.43.

First: HMRKDYTVLYSAVNAEEATEIVSKLQESGVAYQYKDNGDVLVDKKQVDKVRAQLAQEGYPKS
Second: HMEKPAQDVLASHREWMGEMIKAEHMTAKQVWRLLRERADIGVSYPTVKRYLRAHFQFGGPS
The “soluble fraction (log2)” value of the first is lower: -0.204 for the first, 0.00611 for the second.

“HMTKQMELLAQGAAKLSVDLNQRQLDQLQTYYRELVDWNQRMNLTAITQYEEVQVKHFLDSL” and “HMESGFEAVREVARHGSFANAAKALGVSGPAVSRQVKSLEERLGLVFFHRTTRMVTLTEAGQQLVDTLD” are within 0.2 log units of each other in “soluble fraction (log2)” value: -0.294 for the first, -0.211 for the second.

Compared with “HMTNKYSSLVIGTVKTIMEEDQYKNLMGPPLKKEIIKQVDKFTNALPIEFDQNDKDFYVKKILINL”, “HMETQAGELQDAIRDAIAALPPRTREVFLMSRERNLRYGEIAEALGISVKAVEANMSRALRQLREKLSPFL” is higher in “soluble fraction (log2)” value: -0.299 for the first, 0.108 for the second.

Compared with “HMKVIETKYNTYVVKSGDTLYSVAKKYGISVTELKEINDLSNNTLSIGQKLLVPATTIIIDE”, “HMYSNDEIVNYLKNYIFDNFNLNELSDEELEEKIAELVQQQFAGQLLSLDEKVKLVNQVYSSIR” is higher in “soluble fraction (log2)” value: -0.525 for the first, -0.139 for the second.

First: HMNLTSSDIQKILSYALLADNSITLNSIEESMASLKLKKMSAEQLIELLEVSSMVLRNTNNSWSIL
Second: HMPSKTFYNLSQEKQQKIIDASEKEFSNNLYQDVSLNQIIKNSNISRGSFYMYFTDKEDLYFYLLNEY
The “soluble fraction (log2)” value of the first is lower: -1.32 for the first, at least 0.43 for the second.

First: HMIRMPNLIGLSVRSAEQQLVIAGLKKGIVHQVNDPRLKEVIDMQALGHKITAGSSIPKGTEVDLYIGNGT
Second: HMEAQAHYDAIYKAHPNADSIAQSAEFKAWVDAQPSVVRNAYWQLFDPKEGGTAEQIVEVFDAFVKSS
The “soluble fraction (log2)” value of the first is higher: 0.282 for the first, -1.83 for the second.

Going from “HMSRLMIVTPDGRIMDDVPEFGEVRTTTDVNGRVLVLDRNNVVIGFEMTPREYRREFGRNPF” to “HMDRVTYPVSFNGKVRFQLELDAGMNAKEVETAALGHEKTAAQIEGKTIRKVIVVPGRIINIVV”, the “soluble fraction (log2)” value falls from 0.0337 to -0.404.

“HMPRTEILMVDEEMEGERLDAFVAEQLDELSRSLVKTLIENGEIRVDGKQQKPSYRLKAGEEIIVEIPA” and “HMETVQTGTVKVSNSLNVRSGAGTNYSVLGSLSNGAKVEIVGTSGSWYKIKYGSGYGYVSKDYVTVS” are within 0.2 log units of each other in “soluble fraction (log2)” value: -0.438 for the first, -0.28 for the second.

“HMVSGVMAQQAIAVLVQQEDKHAPLSDQALAERLQVQGIDISRRTVAKYRQLLQIPSAATRR” and “HMNREMLVHAIGQLKEKYASALELKYWHGFTEREIAAFLNISEKAANSRLVRGRVMLRKLLE” are within 0.2 log units of each other in “soluble fraction (log2)” value: -0.0405 for the first, 0.139 for the second.

First: HMQTTQQLIRNLRLKQAATLLADKRHSITEVATLTGFTHPTYFATAFREMFGVSPSEYMEQHI
Second: HMLPQGKGTAMWLADHLAAASVTLDAGARKLLEDTLGEDMSRLPGVLRVLEATFGSDAGRLSAEDIEPFL
The “soluble fraction (log2)” value of the first is higher: 0.126 for the first, -1.05 for the second.

First: HMGKLYRDRYAPLEPDGARAGDRVFIISLEKEGTLERIDLPRKTATVLLGSSIRSTFPLDDLYQPRG
Second: HMADTSLDHLGVLVRHASDVDAWAEFFENRGVTLASQPRTHRDGARSFYVDDPDGNRVQVIYHPPI
The “soluble fraction (log2)” value of the first is higher: -0.163 for the first, -0.81 for the second.

Compared with “HMQDELSSSVIEEAVVVLLLRAANIDGKKDEQEIEAIKRLIIQQFNYDEEKADILITSASEK”, “HMIDAHTTLLAKRLESKGFLALTDKSSAEEIYEEFGISKKAFKKALGALYKERLVRIGEDGVVWM” is lower in “soluble fraction (log2)” value: -0.191 for the first, -0.721 for the second.

“HMDKSFYETFEKIGHGDFDKGLNHVWQHANDGNGTATLLLSKLFLEFGDLDNFEKYLNISAEQSNPVAMKI” and “HMEISLEAKMAEVREQVRGLAGINFRTLLEMQASRSNIIVTFLAILELMKIGAIQIRQEEIFGEIIIDSRD” are within 0.2 log units of each other in “soluble fraction (log2)” value: -0.191 for the first, -0.28 for the second.

First: HMEMDITIQMRTLVEELNRASDAYYNGRGELMTDYEWDAKFDQLKQLESQSGVVLPDSPTHRV
Second: HMGDLLTVDRVAATSGLGVDTIRYYQRLGLLDPPVRHGRRALYSTAHLDRLVEIRQLADEGFSLAQIATL
The “soluble fraction (log2)” value of the first is lower: -1.51 for the first, -0.816 for the second.

“HMGEAAIYRINILINNLNVRSGPGTLYPRLRRADFPGEYDIFEEKNGFGRISNTKSEWVSLNTQYVQRLT” and “HMRKIFPFNPNFITDQRGYFLGMSTSEIDRLHHFRAANKWIQSAQEFQVVTKVSNAWLSEFSPYFNFP” are within 0.2 log units of each other in “soluble fraction (log2)” value: 0.158 for the first, 0.298 for the second.
